Among the data in publication PMC10765591, “Structural analysis and molecular substrate recognition properties of Arabidopsis thaliana ornithine transcarbamylase, the molecular target of phaseolotoxin produced by Pseudomonas syringae” (Frontiers in Plant Science, 2023) are stoichiometry N values, retold here.

What is called stoichiometry N is the number of molecules, sites or subunits per partner or assembly.

This assay deals with Arabidopsis thaliana ornithine transcarbamylase (Arabidopsis thaliana) (UniProt O50039). Description: crystal structure; AtOTC co-crystallised with 20 mM ornithine or carbamoyl phosphate; HEPES 0.1 M pH 6.0, 0.3 M Li2SO4, PEG 3350, about 20°C; three subunits around a non-crystallographic three-fold axis.

Sequence of Arabidopsis thaliana ornithine transcarbamylase (O50039 53-375): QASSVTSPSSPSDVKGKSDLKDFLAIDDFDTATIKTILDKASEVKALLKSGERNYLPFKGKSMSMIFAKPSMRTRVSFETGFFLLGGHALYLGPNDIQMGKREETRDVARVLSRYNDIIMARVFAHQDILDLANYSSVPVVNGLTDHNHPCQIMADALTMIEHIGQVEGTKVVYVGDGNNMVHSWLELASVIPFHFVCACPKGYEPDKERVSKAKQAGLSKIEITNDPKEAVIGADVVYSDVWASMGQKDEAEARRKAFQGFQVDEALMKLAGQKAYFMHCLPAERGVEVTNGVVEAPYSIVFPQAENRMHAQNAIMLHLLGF

In turn, “Arabidopsis thaliana ornithine transcarbamylase (from UniProt O50039 53-375) (enzyme)” had a stoichiometry N of 3.
